One test deals with GSN (human) (UniProt P06396). The experiment in a line: control IP with IgG, lysate of cells with N-FLAG B3GNT2, mass spectrometry.
For another test, the target named is PPFIBP1 (human) (UniProt Q86W92). The test is described as above.
Another test deals with CALML5 (human) (UniProt Q9NZT1). The test is described as above.
In the next test the target is RPL8 (human) (UniProt P62917). The test is described as above.
Another test deals with TBL2 (human) (UniProt Q9Y4P3). The test is described as above.
The target of another test is RPL38 (human) (UniProt P63173). The description is as above.
A further test deals with KCTD5 (human) (UniProt Q9NXV2). Described as above.
The target in another test is RPL23 (human) (UniProt P62829). The test is described as above.
The target of another test is SYNCRIP (human) (UniProt O60506). The description is as above.
For another test, the target named is EMILIN1 (human) (UniProt Q9Y6C2). The test is described as above.
For a further test, the target named is SERPINB3 (human) (UniProt P29508). Described as above.
In a further test the target is SYNPO (human) (UniProt Q8N3V7). The test is described as above.
The target in the next test is CCT3 (human) (UniProt P49368). The test is described as above.
For another test, the target named is CHCHD3 (human) (UniProt Q9NX63). Described as above.
CHCHD3 (human), sequence (Q9NX63 2-227 limits assumed): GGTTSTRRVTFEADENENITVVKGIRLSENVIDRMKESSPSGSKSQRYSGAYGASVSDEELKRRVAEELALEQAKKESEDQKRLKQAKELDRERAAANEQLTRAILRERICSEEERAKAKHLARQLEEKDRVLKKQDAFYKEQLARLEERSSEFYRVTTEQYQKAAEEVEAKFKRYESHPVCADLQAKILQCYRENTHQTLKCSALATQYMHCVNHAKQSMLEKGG
For the next test, the target named is SYNM (human) (UniProt O15061). Described as above.
A further test addresses PKM (human) (UniProt P14618). The description is as above.
The next test deals with LGALS7B (human) (UniProt P47929). Described as above.
LGALS7B (human), sequence (P47929 whole entry): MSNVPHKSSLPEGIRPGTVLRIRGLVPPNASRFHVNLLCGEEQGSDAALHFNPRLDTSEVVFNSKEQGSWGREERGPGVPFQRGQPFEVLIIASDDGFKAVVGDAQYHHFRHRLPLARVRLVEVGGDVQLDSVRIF
The target in a further test is RPL7 (human) (UniProt P18124). The test is described as above.
A further test addresses RACK1 (human) (UniProt P63244). Described as above.
In a further test the target is TPM3 (human) (UniProt P06753). The test is described as above.
In the next test the target is RPS14 (human) (UniProt P62263). The test is described as above.
For a further test, the target named is DHX9 (human) (UniProt Q08211). Described as above.
DHX9 (human), sequence (Q08211 whole entry): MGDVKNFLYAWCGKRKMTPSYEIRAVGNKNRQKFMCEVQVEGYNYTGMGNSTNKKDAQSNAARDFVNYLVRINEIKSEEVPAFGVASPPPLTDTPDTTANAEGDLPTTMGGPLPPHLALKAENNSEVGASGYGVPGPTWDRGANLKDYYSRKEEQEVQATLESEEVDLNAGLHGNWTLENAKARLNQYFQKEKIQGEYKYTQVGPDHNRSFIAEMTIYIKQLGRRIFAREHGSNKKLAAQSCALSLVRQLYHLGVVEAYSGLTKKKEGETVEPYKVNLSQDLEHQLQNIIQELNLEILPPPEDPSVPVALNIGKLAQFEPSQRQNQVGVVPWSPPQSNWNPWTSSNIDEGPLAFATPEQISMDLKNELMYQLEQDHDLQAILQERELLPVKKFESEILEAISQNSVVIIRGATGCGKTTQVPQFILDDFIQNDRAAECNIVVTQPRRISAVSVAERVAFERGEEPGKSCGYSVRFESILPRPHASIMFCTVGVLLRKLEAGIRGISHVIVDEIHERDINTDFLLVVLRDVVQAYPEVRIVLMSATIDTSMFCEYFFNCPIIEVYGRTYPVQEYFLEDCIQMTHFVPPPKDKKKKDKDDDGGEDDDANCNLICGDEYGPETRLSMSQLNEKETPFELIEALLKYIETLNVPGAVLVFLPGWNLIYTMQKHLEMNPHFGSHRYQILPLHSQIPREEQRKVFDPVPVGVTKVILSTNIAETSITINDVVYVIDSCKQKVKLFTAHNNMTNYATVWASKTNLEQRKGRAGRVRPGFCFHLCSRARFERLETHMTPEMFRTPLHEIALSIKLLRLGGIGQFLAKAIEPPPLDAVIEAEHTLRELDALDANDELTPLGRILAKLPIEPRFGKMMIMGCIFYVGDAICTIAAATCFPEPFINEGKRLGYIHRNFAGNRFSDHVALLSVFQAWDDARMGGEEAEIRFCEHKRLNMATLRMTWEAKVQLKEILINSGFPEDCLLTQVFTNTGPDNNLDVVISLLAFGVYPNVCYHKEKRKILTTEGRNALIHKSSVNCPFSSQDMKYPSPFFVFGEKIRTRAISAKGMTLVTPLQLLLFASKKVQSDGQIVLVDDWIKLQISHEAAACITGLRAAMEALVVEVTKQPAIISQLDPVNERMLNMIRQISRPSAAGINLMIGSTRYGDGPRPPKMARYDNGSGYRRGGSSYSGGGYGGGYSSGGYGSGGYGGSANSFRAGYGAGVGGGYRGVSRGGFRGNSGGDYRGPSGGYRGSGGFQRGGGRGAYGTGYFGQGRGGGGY
In another test the target is EIF3A (human) (UniProt Q14152). The test is described as above.
EIF3A (human), sequence (Q14152 2-1382 limits assumed): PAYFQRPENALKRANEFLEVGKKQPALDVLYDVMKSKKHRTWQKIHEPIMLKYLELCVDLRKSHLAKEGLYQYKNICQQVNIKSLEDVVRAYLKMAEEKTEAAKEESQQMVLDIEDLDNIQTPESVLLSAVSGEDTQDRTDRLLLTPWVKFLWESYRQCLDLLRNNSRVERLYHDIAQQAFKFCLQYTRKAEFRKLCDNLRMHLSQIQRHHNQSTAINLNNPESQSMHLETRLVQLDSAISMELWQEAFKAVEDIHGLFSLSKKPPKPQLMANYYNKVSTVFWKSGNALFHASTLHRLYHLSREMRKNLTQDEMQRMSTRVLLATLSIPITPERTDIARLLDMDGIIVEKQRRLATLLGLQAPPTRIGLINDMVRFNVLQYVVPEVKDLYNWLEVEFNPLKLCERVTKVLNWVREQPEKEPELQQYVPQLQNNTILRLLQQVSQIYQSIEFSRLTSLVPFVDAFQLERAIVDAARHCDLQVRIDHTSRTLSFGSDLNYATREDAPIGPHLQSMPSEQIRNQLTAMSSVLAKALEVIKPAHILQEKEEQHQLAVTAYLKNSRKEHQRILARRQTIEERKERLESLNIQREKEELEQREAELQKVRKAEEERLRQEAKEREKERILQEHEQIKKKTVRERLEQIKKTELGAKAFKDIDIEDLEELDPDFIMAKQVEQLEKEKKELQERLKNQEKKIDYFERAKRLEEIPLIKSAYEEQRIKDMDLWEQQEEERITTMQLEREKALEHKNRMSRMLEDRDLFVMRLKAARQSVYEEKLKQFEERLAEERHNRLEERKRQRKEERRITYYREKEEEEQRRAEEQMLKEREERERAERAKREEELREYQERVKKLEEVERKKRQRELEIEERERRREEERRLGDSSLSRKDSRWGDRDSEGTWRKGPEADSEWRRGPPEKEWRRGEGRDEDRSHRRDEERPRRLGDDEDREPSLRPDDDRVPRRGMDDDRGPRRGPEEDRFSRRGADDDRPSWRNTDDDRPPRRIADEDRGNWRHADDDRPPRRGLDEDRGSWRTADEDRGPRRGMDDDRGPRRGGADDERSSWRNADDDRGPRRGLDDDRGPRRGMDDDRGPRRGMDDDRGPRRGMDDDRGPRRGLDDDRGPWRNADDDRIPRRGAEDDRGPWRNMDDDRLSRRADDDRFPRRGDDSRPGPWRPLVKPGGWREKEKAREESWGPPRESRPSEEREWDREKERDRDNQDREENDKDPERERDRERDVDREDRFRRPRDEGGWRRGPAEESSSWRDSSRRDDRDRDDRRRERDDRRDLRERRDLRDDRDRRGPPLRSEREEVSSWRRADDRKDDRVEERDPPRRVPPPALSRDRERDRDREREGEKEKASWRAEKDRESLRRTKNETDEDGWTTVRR
In a further test the target is YBX1 (human) (UniProt P67809). Described as above.
In a further test the target is LCN1 (human) (UniProt P31025). Described as above.
The target of a further test is IL13RA2 (human) (UniProt Q14627). The test is described as above.
In another test the target is GBF1 (human) (UniProt Q92538). The description is as above.
The next test concerns the target DDX1 (human) (UniProt Q92499). The description is as above.
The next test has as its target MAP4 (human) (UniProt P27816). The test is described as above.
A further test concerns the target RPS26 (human) (UniProt P62854). Described as above.
Another test deals with IMMT (human) (UniProt Q16891). Described as above.
The next test has as its target RPL28 (human) (UniProt P46779). The test is described as above.
For a further test, the target named is TELO2 (human) (UniProt Q9Y4R8). The test is described as above.
A further test concerns the target FLG (human) (UniProt P20930). Described as above.
For the next test, the target named is RPS27A (human) (UniProt P62979). The test is described as above.
The next test deals with RHOT2 (human) (UniProt Q8IXI1). The test is described as above.
For a further test, the target named is S100A7 (human) (UniProt P31151). Described as above.
S100A7 (human), sequence (P31151 2-101 limits assumed): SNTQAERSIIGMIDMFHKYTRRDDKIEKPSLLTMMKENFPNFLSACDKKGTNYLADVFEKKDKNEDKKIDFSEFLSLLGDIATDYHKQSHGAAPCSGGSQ
A further test deals with GEMIN4 (human) (UniProt P57678). Described as above.
Another test deals with CASC3 (human) (UniProt O15234). Description: co-IP with mouse anti-FLAG from lysate of cells overexpressing N-FLAG B3GNT2, then mass spectrometry.
CASC3 (human), sequence (O15234 whole entry): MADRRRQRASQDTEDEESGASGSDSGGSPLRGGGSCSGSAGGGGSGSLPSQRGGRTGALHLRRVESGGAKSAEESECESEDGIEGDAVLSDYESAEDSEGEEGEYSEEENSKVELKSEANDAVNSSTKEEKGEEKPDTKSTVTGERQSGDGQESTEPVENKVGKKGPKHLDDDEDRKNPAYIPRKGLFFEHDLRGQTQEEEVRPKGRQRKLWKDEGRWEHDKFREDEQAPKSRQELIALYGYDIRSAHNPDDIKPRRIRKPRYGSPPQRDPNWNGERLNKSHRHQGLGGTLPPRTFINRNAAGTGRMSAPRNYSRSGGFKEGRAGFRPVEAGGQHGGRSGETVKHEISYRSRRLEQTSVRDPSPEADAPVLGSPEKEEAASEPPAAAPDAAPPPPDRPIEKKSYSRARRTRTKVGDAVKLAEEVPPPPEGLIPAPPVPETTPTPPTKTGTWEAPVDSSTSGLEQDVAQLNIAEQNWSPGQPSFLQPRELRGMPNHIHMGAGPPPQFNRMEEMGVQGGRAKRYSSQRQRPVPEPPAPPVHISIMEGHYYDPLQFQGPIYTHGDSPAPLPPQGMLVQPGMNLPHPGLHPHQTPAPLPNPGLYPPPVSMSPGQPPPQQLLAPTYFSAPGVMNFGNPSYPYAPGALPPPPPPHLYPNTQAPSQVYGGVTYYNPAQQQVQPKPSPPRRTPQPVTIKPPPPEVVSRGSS

CALML5 (human), sequence (Q9NZT1 2-146 limits assumed): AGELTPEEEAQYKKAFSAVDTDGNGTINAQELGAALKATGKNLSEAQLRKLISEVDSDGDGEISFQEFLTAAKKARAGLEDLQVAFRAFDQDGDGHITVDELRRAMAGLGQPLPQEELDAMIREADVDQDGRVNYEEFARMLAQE
PPFIBP1 (human), sequence (Q86W92 other isoform, or with tags, fused parts or gaps limits assumed): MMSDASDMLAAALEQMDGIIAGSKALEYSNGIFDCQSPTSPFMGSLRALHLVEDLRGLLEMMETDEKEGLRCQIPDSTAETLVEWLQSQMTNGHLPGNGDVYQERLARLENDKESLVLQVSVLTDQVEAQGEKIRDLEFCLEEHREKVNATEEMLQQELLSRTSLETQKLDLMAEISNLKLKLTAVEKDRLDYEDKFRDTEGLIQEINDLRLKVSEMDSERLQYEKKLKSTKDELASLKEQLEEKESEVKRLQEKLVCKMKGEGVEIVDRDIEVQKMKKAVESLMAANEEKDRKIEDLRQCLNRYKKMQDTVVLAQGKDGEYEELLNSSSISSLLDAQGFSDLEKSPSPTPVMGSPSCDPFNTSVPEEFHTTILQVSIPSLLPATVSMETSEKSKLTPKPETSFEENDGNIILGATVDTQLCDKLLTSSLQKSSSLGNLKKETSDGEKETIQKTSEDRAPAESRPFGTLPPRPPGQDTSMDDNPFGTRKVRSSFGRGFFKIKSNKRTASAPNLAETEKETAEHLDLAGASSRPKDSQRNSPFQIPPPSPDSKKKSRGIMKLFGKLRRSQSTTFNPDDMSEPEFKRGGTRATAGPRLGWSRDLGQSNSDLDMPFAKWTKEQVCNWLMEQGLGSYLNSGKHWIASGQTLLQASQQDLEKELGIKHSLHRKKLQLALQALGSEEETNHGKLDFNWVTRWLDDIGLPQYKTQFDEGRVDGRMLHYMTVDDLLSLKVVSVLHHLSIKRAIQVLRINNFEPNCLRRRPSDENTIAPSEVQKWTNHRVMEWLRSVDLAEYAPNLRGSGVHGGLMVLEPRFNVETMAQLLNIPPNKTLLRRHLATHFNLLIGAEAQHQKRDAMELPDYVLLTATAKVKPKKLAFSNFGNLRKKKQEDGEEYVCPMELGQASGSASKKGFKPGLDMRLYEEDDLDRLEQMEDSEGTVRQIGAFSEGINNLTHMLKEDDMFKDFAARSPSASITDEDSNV

Regarding “IgG control (Millipore Sigma 12-371) (antibody)”, the co-IP mass spectrometry count with GSN (human) is 0; in the test with PPFIBP1 (human), 0; with CALML5 (human), 0; in the test with RPL8 (human), 3; with TBL2 (human) it was 0; in the test with RPL38 (human), 5. Besides, the co-IP mass spectrometry count with KCTD5 (human) stood at 0; with RPL23 (human) it was 5; with SYNCRIP (human), 6; in the test with EMILIN1 (human), 0; with SERPINB3 (human), 3; in the test with SYNPO (human), 4. Besides, the co-IP mass spectrometry count worked out at 0 in the test with CCT3 (human); 10 in the test with CHCHD3 (human); 5 in the test with SYNM (human); 2 in the test with PKM (human); 4 in the test with LGALS7B (human); 5 in the test with RPL7 (human). Besides, the co-IP mass spectrometry count amounted to 0 in the test with RACK1 (human); 5 in the test with TPM3 (human); 9 with RPS14 (human); 0 with DHX9 (human); 3 in the test with EIF3A (human); 3 in the test with YBX1 (human). The co-IP mass spectrometry count with LCN1 (human) is 9; with IL13RA2 (human) it was 0; in the test with GBF1 (human) it was 0; with DDX1 (human) it was 2; in the test with MAP4 (human) it was 0; with RPS26 (human), 4. Moreover, the co-IP mass spectrometry count amounted to 17 with IMMT (human); 3 with RPL28 (human); 0 with TELO2 (human); 20 in the test with FLG (human); 11 with RPS27A (human); 0 with RHOT2 (human). Further, the co-IP mass spectrometry count turned out to be 2 in the test with S100A7 (human) and 0 with GEMIN4 (human).
Regarding “N-terminal FLAG tagged B3GNT2 (from UniProt Q9NY97 1-397) (enzyme)”, in the test with CASC3 (human), the co-IP mass spectrometry count (N-term FLAG) was determined as 3.

The record behind these values is patent publication US20240261333A1, “NOVEL TARGETS FOR ENHANCING ANTI-TUMOR IMMUNITY” (THE BROAD INSTITUTE, INC., priority 2021, published 2024).
